This is an account of results in patent publication US20240400715A1 (VIBRANT PHARMA, published 2024).

As a reminder, the EC50 is the midpoint of the concentration-response curve. The low end stands for a more potent agent, the high end for a less potent agent. As usually defined, the Kd is the equilibrium constant for the complex coming apart. In general, koff refers to the rate constant with which the complex falls apart. Low values mean a long-lived complex, high ones a short-lived complex. What is called kon is a measure of how fast the partners come together.

Values joined by “and” are separate entries in the source; they are usually repeats but may differ in a detail not shown here. Equal entries are not always repeated.

The target of experiment [1] is T1, human CD3 on Jurkat cells (human, UniProt P07766 23-207; P04234 22-171; P09693 23-182).
T1 construct: whole, on cells; CD3 complex as on Jurkat (Clone E6-1) cells; also called CD3 expressing cells (Jurkat)
The experiment is described as follows: FACS, Jurkat cells.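 Also: flow cytometric binding of bispecific antibodies to Jurkat T cells, threefold serial dilutions incubated half an hour in the cold, EC50 taken from the fitted binding curve.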 A general note: A flow cytometer gives signals particle by particle.

For experiment [2], the target named is T2, human CD3ε/δ (ACRO systems, CDD-H52W1) (human, UniProt P07766 23-126; P04234 22-105).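 Also: bispecific antibodies captured on AHIC biosensors to a 1.5 nm loading signal, in PBST with 0.02% detergent.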
T2 construct: Bought protein; also called human CD3ϵ/CD3δ; human CD3 epsilon/delta antigen
Kind of experiment: BLI, antibody captured, antigen in solution. (BLI is a label-free optical method that tracks binding on a fibre tip over time.)
Description: The bispecific antibodies were diluted to 5 ag/ml, and 1.5 nm protein was coupled to the surface of the AHIC sensor chip through 0.02% PBST.

B1: Knob-Fab+Hole-CEA (109) (bispecific antibody, human IgG4 S228P, kappa, F234A L235A)
heavy: ESKYGPPCPPCPAPEAAGGPSVFLFPPKPKDTLMISRTPEVTCVVVDVSQEDPEVQFNWYVDGVEVHNAKTKPREEQFNSTYRVVSVLTVLHQDWLNGKEYKCKVSNKGLPSSIEKTISKAKGQPREPQVYTLPPCQEEMTKNQVSLWCLVKGFYPSDIAVEWESNGQPENNYKTTPPVLDSDGSFFLYSRLTVDKSRWQEGNVFSCSVMHEALHNHYTQKSLSLSLGGGGSGGGGSEVKLLESGGGLVQPKGSLKLSCAASGFTFNTYAMNWVRQAPGKGLEWVARIRSKYNNYATYYADSVKDRFTISRDDSQSILYLQMNNLKTEDTAMYYCVRHGNFGNSYVSWFAYWGQGTLVTVSSASTKGPSVFPLAPCSRSTSESTAALGCLVKDYFPEPVTVSWNSGALTSGVHTFPAVLQSSGLYSLSSVVTVPSSSLGTKTYTCNVDHKPSNTKVDKRV
chain: ESKYGPPCPPCPAPEAAGGPSVFLFPPKPKDTLMISRTPEVTCVVVDVSQEDPEVQFNWYVDGVEVHNAKTKPREEQFNSTYRVVSVLTVLHQDWLNGKEYKCKVSNKGLPSSIEKTISKAKGQPREPQVCTLPPSQEEMTKNQVSLSCAVKGFYPSDIAVEWESNGQPENNYKTTPPVLDSDGSFFLVSRLTVDKSRWQEGNVFSCSVMHEALHNRFTQKSLSLSLGGGGSGGGGSEVQLVESGGGFVQAGESLTLSCTSSTLTFTPYRMAWYRQAPGKQRDLVADISSGDGRTTNYADFAKGRFTISRDNIKNTVFLRMTNLKPEDTAVYYCNTFVSFVGIARSWGQGTQVTVSS
light: QAVVTQESALTTSPGETVTLTCRSSTGAVTTSNYANWVQEKPDHLFTGLIGGTNKRAPGVPARFSGSLIGDKAALTITGAQTEDEAIYFCALWYSNLWVFGGGTKVEIKRTVAAPSVFIFPPSDEQLKSGTASVVCLLNNFYPREAKVQWKVDNALQSGNSQESVTEQDSKDSTYSLSSTLTLSKADYEKHKVYACEVTHQGLSSPVTKSFNRGEC
notes: Anti-CD3 TA1 Fab + anti-CEA VHH C17 on human IgG4 knob-into-hole Fc
With B1, the EC50 in experiment [1] is 12.1 µg/mL and 93 nM. In experiment [2], binding was put at a Kd of 1.67 nM, the koff was determined as 0.000485 s⁻¹ and the kon was 291000 M⁻¹ s⁻¹.

B2: CEA-Knob+Hole-Fab (110) (bispecific antibody, human IgG4 S228P, kappa, F234A L235A)
chain: EVQLVESGGGFVQAGESLTLSCTSSTLTFTPYRMAWYRQAPGKQRDLVADISSGDGRTTNYADFAKGRFTISRDNIKNTVFLRMTNLKPEDTAVYYCNTFVSFVGIARSWGQGTQVTVSSESKYGPPCPPCPAPEAAGGPSVFLFPPKPKDTLMISRTPEVTCVVVDVSQEDPEVQFNWYVDGVEVHNAKTKPREEQFNSTYRVVSVLTVLHQDWLNGKEYKCKVSNKGLPSSIEKTISKAKGQPREPQVYTLPPCQEEMTKNQVSLWCLVKGFYPSDIAVEWESNGQPENNYKTTPPVLDSDGSFFLYSRLTVDKSRWQEGNVFSCSVMHEALHNHYTQKSLSLSL
heavy: ESKYGPPCPPCPAPEAAGGPSVFLFPPKPKDTLMISRTPEVTCVVVDVSQEDPEVQFNWYVDGVEVHNAKTKPREEQFNSTYRVVSVLTVLHQDWLNGKEYKCKVSNKGLPSSIEKTISKAKGQPREPQVCTLPPSQEEMTKNQVSLSCAVKGFYPSDIAVEWESNGQPENNYKTTPPVLDSDGSFFLVSRLTVDKSRWQEGNVFSCSVMHEALHNRFTQKSLSLSLGGGGSGGGGSEVKLLESGGGLVQPKGSLKLSCAASGFTFNTYAMNWVRQAPGKGLEWVARIRSKYNNYATYYADSVKDRFTISRDDSQSILYLQMNNLKTEDTAMYYCVRHGNFGNSYVSWFAYWGQGTLVTVSSASTKGPSVFPLAPCSRSTSESTAALGCLVKDYFPEPVTVSWNSGALTSGVHTFPAVLQSSGLYSLSSVVTVPSSSLGTKTYTCNVDHKPSNTKVDKRV
light: QAVVTQESALTTSPGETVTLTCRSSTGAVTTSNYANWVQEKPDHLFTGLIGGTNKRAPGVPARFSGSLIGDKAALTITGAQTEDEAIYFCALWYSNLWVFGGGTKVEIKRTVAAPSVFIFPPSDEQLKSGTASVVCLLNNFYPREAKVQWKVDNALQSGNSQESVTEQDSKDSTYSLSSTLTLSKADYEKHKVYACEVTHQGLSSPVTKSFNRGEC
notes: Anti-CD3 TA1 Fab + anti-CEA VHH C17 on human IgG4 knob-into-hole Fc; also called CEA-CD3 bispecific antibody 110
With B2, in experiment [1], the half-maximal effective concentration (EC50) is 8.88 µg/mL and 68.3 nM. In experiment [2], this molecule yielded a Kd of 1.98 nM, a koff of 0.000565 s⁻¹ and a kon of 285000 M⁻¹ s⁻¹.

B3: Fab (Light)-Knob+Fab (Heavy)-Hole-CEA (210) (bispecific antibody, human IgG4 S228P, kappa, F234A L235A)
chain: QAVVTQESALTTSPGETVTLTCRSSTGAVTTSNYANWVQEKPDHLFTGLIGGTNKRAPGVPARFSGSLIGDKAALTITGAQTEDEAIYFCALWYSNLWVFGGGTKVEIKRTVAAPSVFIFPPSDEQLKSGTASVVCLLNNFYPREAKVQWKVDNALQSGNSQESVTEQDSKDSTYSLSSTLTLSKADYEKHKVYACEVTHQGLSSPVTKSFNRGECESKYGPPCPPCPAPEAAGGPSVFLFPPKPKDTLMISRTPEVTCVVVDVSQEDPEVQFNWYVDGVEVHNAKTKPREEQFNSTYRVVSVLTVLHQDWLNGKEYKCKVSNKGLPSSIEKTISKAKGQPREPQVYTLPPCQEEMTKNQVSLWCLVKGFYPSDIAVEWESNGQPENNYKTTPPVLDSDGSFFLYSRLTVDKSRWQEGNVFSCSVMHEALHNHYTQKSLSLSL
heavy: EVKLLESGGGLVQPKGSLKLSCAASGFTFNTYAMNWVRQAPGKGLEWVARIRSKYNNYATYYADSVKDRFTISRDDSQSILYLQMNNLKTEDTAMYYCVRHGNFGNSYVSWFAYWGQGTLVTVSSASTKGPSVFPLAPCSRSTSESTAALGCLVKDYFPEPVTVSWNSGALTSGVHTFPAVLQSSGLYSLSSVVTVPSSSLGTKTYTCNVDHKPSNTKVDKRVESKYGPPCPPCPAPEAAGGPSVFLFPPKPKDTLMISRTPEVTCVVVDVSQEDPEVQFNWYVDGVEVHNAKTKPREEQFNSTYRVVSVLTVLHQDWLNGKEYKCKVSNKGLPSSIEKTISKAKGQPREPQVCTLPPSQEEMTKNQVSLSCAVKGFYPSDIAVEWESNGQPENNYKTTPPVLDSDGSFFLVSRLTVDKSRWQEGNVFSCSVMHEALHNRFTQKSLSLSLGGGGSGGGGSEVQLVESGGGFVQAGESLTLSCTSSTLTFTPYRMAWYRQAPGKQRDLVADISSGDGRTTNYADFAKGRFTISRDNIKNTVFLRMTNLKPEDTAVYYCNTFVSFVGIARSWGQGTQVTVSS
notes: Two-chain format; human IgG4 knob-into-hole Fc; also called CEA-CD3 bispecific antibody 210
In the case of B3, the EC50 in experiment [1] was 2.08 µg/mL and 16 nM. In experiment [2], this molecule yielded a Kd of 2.83 nM, a koff of 0.000689 s⁻¹ and an association rate constant (kon) of 243000 M⁻¹ s⁻¹.

B4: 308 (TA3), configuration of FIG. 1X (bispecific antibody, IgG4)
heavy: EVQLVESGGGLVQPGGSLRLSCAASGYSFTGYTMNWVRQAPGKGLEWVALINPYKGVSTYNQKFKDRFTISVDKSKNTAYLQMNSLRAEDTAVYYCARSGYYGDSDWYFDVWGQGTLVTVSSASTKGPSVFPLAPCSRSTSESTAALGCLVKDYFPEPVTVSWNSGALTSGVHTFPAVLQSSGLYSLSSVVTVPSSSLGTKTYTCNVDHKPSNTKVDKRVESKYGPPCPPCPAPEAAGGPSVFLFPPKPKDTLMISRTPEVTCVVVDVSQEDPEVQFNWYVDGVEVHNAKTKPREEQFNSTYRVVSVLTVLHQDWLNGKEYKCKVSNKGLPSSIEKTISKAKGQPREPQVYTLPPCQEEMTKNQVSLWCLVKGFYPSDIAVEWESNGQPENNYKTTPPVLDSDGSFFLYSRLTVDKSRWQEGNVFSCSVMHEALHNHYTQKSLSLSLGGGGSGGGGSEVQLVESGGGFVQAGESLTLSCTSSTLTFTPYRMAWYRQAPGKQRDLVADISSGDGRTTNYADFAKGRFTISRDNIKNTVFLRMTNLKPEDTAVYYCNTFVSFVGIARSWGQGTQVTVSS
chain: ESKYGPPCPPCPAPEAAGGPSVFLFPPKPKDTLMISRTPEVTCVVVDVSQEDPEVQFNWYVDGVEVHNAKTKPREEQFNSTYRVVSVLTVLHQDWLNGKEYKCKVSNKGLPSSIEKTISKAKGQPREPQVCTLPPSQEEMTKNQVSLSCAVKGFYPSDIAVEWESNGQPENNYKTTPPVLDSDGSFFLVSRLTVDKSRWQEGNVFSCSVMHEALHNRFTQKSLSLSL
light: DIQMTQSPSSLSASVGDRVTITCRASQDIRNYLNWYQQKPGKAPKLLIYYTSRLESGVPSRFSGSGSGTDYTLTISSLQPEDFATYYCQQGNTLPWTFGQGTKVEIK
notes: chains put together from parts; IgG4, kappa; not shown: kappa light chain constant domain (CL)
In the case of B4, in experiment [1], the half-maximal effective concentration (EC50) is 4.59 µg/mL and 35.3 nM. Also, in experiment [2], the Kd amounted to 3.01 nM and the dissociation rate constant (koff) amounted to 0.000997 s⁻¹.

B5: Knob+CEA-Hole-Fab (111) (bispecific antibody, human IgG4 S228P, kappa, F234A L235A)
chain: ESKYGPPCPPCPAPEAAGGPSVFLFPPKPKDTLMISRTPEVTCVVVDVSQEDPEVQFNWYVDGVEVHNAKTKPREEQFNSTYRVVSVLTVLHQDWLNGKEYKCKVSNKGLPSSIEKTISKAKGQPREPQVYTLPPCQEEMTKNQVSLWCLVKGFYPSDIAVEWESNGQPENNYKTTPPVLDSDGSFFLYSRLTVDKSRWQEGNVFSCSVMHEALHNHYTQKSLSLSL
heavy: EVQLVESGGGFVQAGESLTLSCTSSTLTFTPYRMAWYRQAPGKQRDLVADISSGDGRTTNYADFAKGRFTISRDNIKNTVFLRMTNLKPEDTAVYYCNTFVSFVGIARSWGQGTQVTVSSESKYGPPCPPCPAPEAAGGPSVFLFPPKPKDTLMISRTPEVTCVVVDVSQEDPEVQFNWYVDGVEVHNAKTKPREEQFNSTYRVVSVLTVLHQDWLNGKEYKCKVSNKGLPSSIEKTISKAKGQPREPQVCTLPPSQEEMTKNQVSLSCAVKGFYPSDIAVEWESNGQPENNYKTTPPVLDSDGSFFLVSRLTVDKSRWQEGNVFSCSVMHEALHNRFTQKSLSLSLGGGGSGGGGSEVKLLESGGGLVQPKGSLKLSCAASGFTFNTYAMNWVRQAPGKGLEWVARIRSKYNNYATYYADSVKDRFTISRDDSQSILYLQMNNLKTEDTAMYYCVRHGNFGNSYVSWFAYWGQGTLVTVSSASTKGPSVFPLAPCSRSTSESTAALGCLVKDYFPEPVTVSWNSGALTSGVHTFPAVLQSSGLYSLSSVVTVPSSSLGTKTYTCNVDHKPSNTKVDKRV
light: QAVVTQESALTTSPGETVTLTCRSSTGAVTTSNYANWVQEKPDHLFTGLIGGTNKRAPGVPARFSGSLIGDKAALTITGAQTEDEAIYFCALWYSNLWVFGGGTKVEIKRTVAAPSVFIFPPSDEQLKSGTASVVCLLNNFYPREAKVQWKVDNALQSGNSQESVTEQDSKDSTYSLSSTLTLSKADYEKHKVYACEVTHQGLSSPVTKSFNRGEC
notes: as for B1
For the molecule B5, in experiment [1], the EC50 was 7.6 µg/mL and 58.5 nM. In addition, in experiment [2], the affinity, expressed as Kd, was 2.08 nM; the off-rate constant (koff) was 0.000694 s⁻¹; the kon amounted to 333000 M⁻¹ s⁻¹.
